Our source for the KM of AMC release from diUb-AMC (Michaelis-Menten, 15 nM OTUD2, substrate up to 20 μM), KM of AMC release from diUb-AMC (Michaelis-Menten, 15 nM OTUD3) and t1/2 of covalent probe labelling values is paper PMC4850247.

Experiment [1] concerns the target Full-length human OTUD2 (human) (UniProt Q5VVQ6).
Experiment [2] deals with OTUD3 (aa 52-209) (human) (UniProt Q5T2D3).
The target of experiment [3] is Full-length human OTUD2 (human) (UniProt Q5VVQ6). Description: covalent labelling with an active site-directed probe (SDS-PAGE, fluorescence scan); 0.1 μM OTUD2 constructs with 1 μM TAMRA-labeled K11-linked diUb-PA, time course up to 60 min, bands quantified.
For experiment [4], the target named is OTUD2 OTU (aa 147-314) (human) (UniProt Q5VVQ6). The description is as above.
Experiment [5] concerns the target Full-length human OTUD2 (human) (UniProt Q5VVQ6). Description: covalent labelling with an active site-directed probe (SDS-PAGE, fluorescence scan); 0.2 μM OTUD2 with 2 μM TAMRA-labeled mUb-PA or diUb-PA probes, time course, 30°C, 20 mM Tris-HCl pH 7.5, 150 mM NaCl; bands quantified and fitted by pseudo-first-order one-phase association, plateau forced to that of K11.

Sequence of UniProt Q5T2D3 (Q5T2D3 52-209): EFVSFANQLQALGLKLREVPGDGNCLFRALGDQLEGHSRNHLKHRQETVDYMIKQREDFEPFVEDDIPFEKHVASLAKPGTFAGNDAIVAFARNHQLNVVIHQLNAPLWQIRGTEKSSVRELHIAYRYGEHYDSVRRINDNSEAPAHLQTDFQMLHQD

For the substance “K11 triazole-linked diUb-AMC substrate (from UniProt P0CG48 1-76)”, the KM of AMC release from diUb-AMC (Michaelis-Menten, 15 nM OTUD2, substrate up to 20 μM) in experiment [1] was 20 µM. Further, in experiment [2], the KM of AMC release from diUb-AMC (Michaelis-Menten, 15 nM OTUD3) came out at 3.7 µM. Consider “K27 triazole-linked diUb-AMC substrate (from UniProt P0CG48 1-76)”, for which the KM of AMC release from diUb-AMC (Michaelis-Menten, 15 nM OTUD3) in experiment [2] was 4.7 µM. On to “K33 triazole-linked diUb-AMC substrate (from UniProt P0CG48 1-76)”, for which the KM of AMC release from diUb-AMC (Michaelis-Menten, 15 nM OTUD2, substrate up to 20 μM) in experiment [1] was 100 µM.

With “TAMRA-labeled K11 triazole-linked diUb-PA probe (from UniProt P0CG48 1-75; P0CG48 1-75)”, the t1/2 of covalent probe labelling in experiment [3] was found to be 5.3 min; in experiment [4], 6.8 min; in experiment [5] it was 3.5 min. Turning to “TAMRA-labeled K33 triazole-linked diUb-PA probe (from UniProt P0CG48 1-75; P0CG48 1-75)”, the t1/2 of covalent probe labelling in experiment [5] was found to be 8.5 min.
